In IntAct's records for PubMed 24256567:

B1: Tyrosine-protein kinase ZAP-70 (Homo sapiens), P43403 (parent)
chain: MPDPAAHLPFFYGSISRAEAEEHLKLAGMADGLFLLRQCLRSLGGYVLSLVHDVRFHHFPIERQLNGTYAIAGGKAHCGPAELCEFYSRDPDGLPCNLRKPCNRPSGLEPQPGVFDCLRDAMVRDYVRQTWKLEGEALEQAIISQAPQVEKLIATTAHERMPWYHSSLTREEAERKLYSGAQTDGKFLLRPRKEQGTYALSLIYGKTVYHYLISQDKAGKYCIPEGTKFDTLWQLVEYLKLKADGLIYCLKEACPNSSASNASGAAAPTLPAHPSTLTHPQRRIDTLNSDGYTPEPARITSPDKPRPMPMDTSVYESPYSDPEELKDKKLFLKRDNLLIADIELGCGNFGSVRQGVYRMRKKQIDVAIKVLKQGTEKADTEEMMREAQIMHQLDNPYIVRLIGVCQAEALMLVMEMAGGGPLHKFLVGKREEIPVSNVAELLHQVSMGMKYLEEKNFVHRDLAARNVLLVNRHYAKISDFGLSKALGADDSYYTARSAGKWPLKWYAPECINFRKFSSRSDVWSYGVTMWEALSYGQKPYKKMKGPEVMAFIEQGKRMECPPECPPELYALMSDCWIYKWEDRPDFLTVEQRMRACYYSLASKVEGPPGSTQKAEAACA

Variants of: B1
Details: with ubs3b_mouse Ubash3b

| Variant | effect of a mutation on the interaction |
| --- | --- |
| Y319F | disrupting interaction |
